assay: soluble fraction after stress (log2 fold change); higher = more stays soluble; pooled small domains, quantitative proteomics; settings: stress: 50 degC
Method in brief: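 The stress applied to every library was 50°C. These custom libraries of small protein domains were pooled and measured at high throughput with quantitative proteomics as the read-out. Aggregation propensity is expressed as the base-two logarithm of the fold change in how much of each protein remains soluble. The higher the value, the more of that protein stays in solution.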

Sequence	soluble fraction (log2)
HMSTEPLALVGKTGIAATVLRPSGRIEVDDKYYDAVSLGAFIEKGEMVNIVKYENLQLYVAKL	-0.0644
HMILSTNFFRHIVPKEYQTSYGTMKKWLTDHNVIGTNSIPQGIGYRIPTQGLSSTFSFKVVDVLPDR	-0.525
HMRMETRILTADESGIRLDAFLASRLAVSRSLAASLIDDGNVTLNGTVPKKKTAVNVGDILEVAMP	-0.234
HMEEYLENLTQSKLLHMLDQLSPAYKTVFTLFVLDELSHEEISKMLNISIGTSKSNLFRARKVMRVLMESE	-0.397
HMQDFEQNLFDGKSIYDRMLSKFSLHNVDVKQLVAHFKRKDTEQFFADIGRGLITSAQMLGFLQT	-0.289
HMQEVILEKIQLTYLSADKLSKMAEQFSIPVKMYWVDENPMMLMVMGNESDIATFKKVLTQIDIPENKS	0.0714
HMGNYEEAILAFEAAIKIDPKNADAYRKLAEAYEKTGDEDAALRTLETGAEATGDRELADLAEKKRQELDA	0.169
HMEGIAEILPASVRQKYGLIGLYDALRGLHFPGNMEEIKAARQRLAFEDTLMFSLTLSMMQYS	-0.0198
HMLIRKGVVSFFNDAKGYGFIKDLVTQESAFVHVNSLSETIKEHDKVTFEVEMGHKGANAVNVKLVK	-1.03
HMNVNTHKTLILNSTFQPLSLATPQRALALLFSKKINVLKESDIKLRSVGQSVAIPKVAVLTYFVKA	-0.291
HMPIDIEPVLQWIRDNSIDGIGPARSMYHSAAAAAGLPSYSSLQLRKWTWPLLLDAAGVQRR	-0.433
HMTNATVGQIKKLARASILYGNSNLSGNRYTYKANTTVTILQNISSNVDKIRVNVTGRVAYIDNSNYSSST	-3.56
HMKVSKNKIVKGMGFHHVALKAVDFDASFKFYTEGLGMKFYTSWGEGNGKIAMLDLGDGGILELFA	0.0801
HMSAEDQRRASQEAAYRFMQVMAGNEAGFEDAARALFAGDNHRFEVLIQSWPDDVRDHVSLLSVDAFA	-0.615
HMQLVPGIGRLSARELEVFTLIGRGLGTSEIGKKLGVSAYTVQTHRNHIKEKLNLPNAAAITYWAIQWAHG	-2.14
HMINLVPFELKFITAQVLDDIIKKIGINADTIILDINPKKIWVYAGEQELSDIQNIVKNVDVEDNI	-0.443
HMRKKDGEAYVLPRPLKKGDSVLIYDIDKKGTVLQPPEKGGKTALIQAGIIQTRVPVSNLRLLE	0.383
HMDKINQEAIEDEAGLWLAKIDGRQLAQEEVRELIAWMRRSDFHREYLITLARQWDGMAALNKLATLFP	-0.976
HMTEDIAVRILEFLEDNNGFYALNDKTPSEKIHDLFGVSKKKFKIALGGLYKQRLITVSDAGVTLVK	-1.29
HMSFDNIKVGYISETAGYVKGISLADANEYAKLNPDTEFIFIDGDEKVRFLTINEVNGLTPKNLLRSDP	-0.23
HMESIAEIDRMNAKIFMDEFQDSLSIMQKTTNPETFFSRYDLAMERLDNMVELQQKGIKFTSDLSSLKAQ	0.0074
HMTKEEKEKREKYEKLMKKADELVTAKNHKEAVTVLGQAKAYANPQQTKEIEEKIKAQTAELDKG	0.239
HMPNQLLELVEMEIRDLLNEYEFPGDDTPIIQGSALKALEDPMGPWGDKIMDLMDAVDSYIPDPE	-0.581
HMDSTLDLVATQGGRLDQVLAEMIPEHSRNRLQHWIKAGRVLVDGQPVLEPKHKIYGGEDLAVRVD	0.278
HMSRFLEGILQRRAGGKNYFVPDDGSNPIFIADRNSAGAANGDRVRIAQFARRPRSGPEGEVVEILKRAK	-0.00665

Sequence	soluble fraction (log2)
HMSVLLKEEGSLQLARHGAAYFIIYSAQEHPNQRRHLKISEEESNRIMEGTPIEEIFLAYSG	-0.291
HMAIGERIRFLRTLRRMTQKELGLAAGFPEKNASIRMAQYENGTRTPKAELTAVLAEILKVSPQALTV	-1.2
HMESPLNPTDVRRAAMDLLARREHGVEELRLKLKRRFGREEDFETIATEQLQRLVDEDLLSDTRF	-0.165
HMPVFSLTPRELEILEWMSTPNTYRQIAAQLSVSEETVRSHAKNILEKMRQPNRAQAVLAAVKMGLIKL	-0.819
HMHPSNQELTKVLAQGSELVLAQKYIEASQIFTRVIEIDQTWAEAWNKRATVFYLLQNYEASQKDIDEV	0.0182
HMLEEIIDVKRFLVENVRGVSEKTALAILSEFGDKTMDVLRNSPNELYRIKGMSGKRIEVIKDAIANATAS	-0.275
HMGITRQQALQQINQSASPKKILNASLGKRGSEFVWDIGYLSKSGKLNYVTYSFRSGEQLNAIKN	-1.02
HMKLSIGGTIEKLRRNKGLSHQQLANALGVTPDTVEKWEINAAYPDITLLSPIARLLGTTLDALLMF	-0.649
HMPVAPTYALTVKTDPPSANVRLLNSPTPYQPGVRLPSGNYDIEVTQSGYATRKESVRIADRDVALNIAL	0.163
HMERRDEINSVVSRYVSAITEGKYDLAEVDETGKLRVQTEGREVLPEALSRGTLEQFYFAFRMAVGSI	-0.118
HMSGWIATGTATSTGNDVRVRSTPDATVNNNILLTLNKGNRFEIDGQTQNGFYHIKVNDTIGWISGLYVKE	-0.499
HMAASTPGTVTGSVVNVRPDPSTNNDRIGVIYQGTKVEILAQVGEWYNIQFGPVSGWVHKDYISTGA	0.00638
HMEQNTKAYEQVRTLTDLLNQYRHEYYNLSAPSVSDQEYDRLFDALAALEKQTGIVMSNSPTQTVG	0.0359
HMTYNIPEHYQTIDVKEYVRKLVSDGDSDQIGRVEMELTEFETRNLFPVLKVLIYIIDTMRK	-2.45
HMELVQIIGNNIRDLMTTRSVTITDLANYLNVSRQTLQNYLRGSNIIDSVKLVAVSDFFDVPVESLLQSK	-1.04
HMGGTATDYYNQGRTAYDVGDYNGALMNFQEAVRLDPRYGEAYYGLGKAYEALNMQNQALDAYLSAI	-0.16
HMSSQGQNTKTGTVTASALYVRSGAGTNYSQIGYLLKNTKVEIVGQTGSWYKIKFGSGTGYVSSKYIK	-0.652
HMQDTQAEEGETLLDALRRIHPESSTGTLRRMLTQGRVQLDGDSVHAAKTVLSAGQRVEVVAR	0.0446
HMKSLVDLEISIVKKDMNYFVLPKINGEPLLMERISASEYKDFQLGKLSKEDIFQKHYPDYSEENIKNGRG	0.145
HMNLYERFPIHELWKETFNETLDEEEHITFITSEFKPENIVLGQGFIAAPSKKDAVDWLKVIRTVLIFYDS	-0.941
HMTVIARQIPPLVPRMLDGLEAFIKLDVPFEEKERLARVQMLRSSLDRDNLDTAEIFRAVLEAYNIELQY	0.0196
HMLQIGDEEFIENIVKQVIDENQKAVDDYKKGKEKVMAFLIGQVMKKTKGKVNSEIVEKTIKKL	-0.262
HMTGREIDQLFSVVNDLKAKGVGMVFISHHLDEIARIADSVSVLRDGGFVAEVPASTPEKKLVTLMVGRDI	-0.208
HMDYTGIPQSLLDLMKKDNIMPMQIQRAVAERNYYPVDTPISNYDPMFIEAKLVGAWDQVLNVISHLDLP	-0.649
HMTDQYEVQNLVGLTVREAQEKEGVKDIFEVREVGSEFSAEYDAGLIVRQSPDAGEQRKGEGLVIEVWVSA	0.0425

Sequence	soluble fraction (log2)
HMNRGITVIVNNEEIKMKEKAQYVVVDIFDYIDFDLTVPKGSINITLNGENTPYTASIKDGDVIEVFW	-0.266
HMTGDNQTIGGGGFHHVAIRAHDFDASVKFYGETLGFREKIAWGEGDKRAIMMDTGDGNYIEIF	0.197
HMYKIDFAEGDRVIIKGGAFSGLRATVVSLHPEKGMAKIKVYMFGDRETLVDIEVSQLEKDK	-0.348
HMDKLSYALGLSMGHNFLGSGIKSLNVEDFAKGVEAVYKQEKPEISFDEAKKIINEFFSNLQDEIAE	-0.628
HMKNENSLLVSRLAEEKIINRAKLVLMEYLKLSEPQAHRYIEKQAMDLQISRAEVAARVLETYE	-0.0477
HMGSQELIQLGERIRQKRKDSHLTQETFAEKAGISVNTVSRIEGGQAAMSIEIFAKLVEILDADANELLG	-1.14
HMVVLNQEQIKFIDHYLQVSKVRYVDVRSELTDHIATAVELKMQDEALDFYEAFKAFIAVNKSQLLQRN	-1.45
HMTVAQEIEARRATIRSSDPAEMARFIRWLIMEGHTEPAADELKKYAENFPEASATTKQLQALLAAR	-0.177
HMVVVPPPATPKPGDVTGDNKINGYDLSILLSNWKRPGATLAQGDLNKDGVVNGLDLSIMLLNWG	-0.0393
HMAVSDPTAGGIKALMYPNPAQDRLSVALDIPAGLDKQAQMTVTDMMGRVVTQQQVTLNDGFQVFEL	0.215
HMNPSIALHDWLQSSEFKGSINLFAAALGMNPRTVEAWVYGRSTPSRRFWAKLYQITNLSRFRL	-0.836
HMSVTIENQINTYFQTRDKISRDELVALIKKDFANWTDNTINIYVSSLQKRGIIHSLSRGMYALGN	-1.98
HMALPDWLDPEAWAAWKRHRKAIRKPLTEDAVALSIRELAKLRDEGYGPTSVIENAILKGWQGLYPPK	-0.133
HMVDLAPTEEIIKNLPNNSRSLLIPTLQKIQNAYRYLPSPAMELLSEFLNVTRAEIYGVISFYPSLL	0.0871
HMGSFAADVGRMVRLGRAKRGISRRKLAADSGISERYLAQIEGGQGNPSVNVLKAIADAISVPVFELLPH	-1
HMAEVIYGAGKTPAQMLGILRTMQAHGQKTVLITRLREEAAEEIGREIPLQYDKTAGVGIVGTLPQPDG	-0.0493
HMDGTVRGKTTFQELLDWGVPQERIEAVLGGPIPAPGVVIKDYVTAQGKEFSAVRDALQAEVDAVLK	0.232
HMDRWSLLTLTTLAGGTLRFTELKRAIGDISQRMLAQTLRTLEREGYVSRKVYATIPPKVEYRLTALGQSL	-3.05
HMSVPEAAERAIDVAQMRRALGELSPEQQRVLELAYFGGLTRQEIARATGTPLGTVHTRARLGLQNLRARL	-0.299
HMDLPRQSQYQALVVSYARRAGIDEAEEDLLAAFEVWRMRHNHDLAGGRTARDFILAYLPQYQRHKE	-1.63
HMDFYVILGVDRAASLSDVKRAYRRLARKHHPDINPGDPESDAFFMRVTEAYETLVDPDRRQEYDEHG	-1.03
HMEGNFFADIRQELMRELDQEAEWSDVQILEKIDDLVLLRTRRSSLTVNEKEQLRKELFYSVRK	-0.0909
HMSDAQIKASINDLWFKYNLETFAKLNLNVNQGRVLVTGIVQNPEHRLEAIRLVWTVDGVQQVINEIQVAE	-0.795
HMGYKDIDKLSGVDLAIYRFIVEHDEQIPYMRVRELARGAHVSNSSVMRFIRKIGYDSFPEFKVSLRS	0.0102
HMTETTTVPKLKGLTKDEAEDAAKSSKIKLEFIDEISKTVEAGVIIKQEKDEGETVNAGDTVKVYVSIGT	0.218

From the domain aggregation screens of Martell et al. (2025)
